Results: US20210246166A1 (Bayer, published 2021)
Numbered stars: 1 amine (or outer) side, 2 acyl side, 3 side chain; on linkers, the order of the positions; unused ones are H or OH. Bridge positions count the residues as written; N and C are the ends. Square brackets hold non-standard residues; d marks the D form. Primed or numbered codes have the meaning given here. Ends that are not written are not given here. * marks the point of attachment. Tranexamic″ = tranexamic acid, NC[C@H]1CC[C@@H](C(=O)*)CC1; NH(CH2CH2O)4CH2CO = O=C(COCCOCCOCCOCCN[*:1])[*:2]; Oic = O=C(O)[C@@H]1C[C@@H]2CCCC[C@@H]2N1; Phe(4-Br) = N[C@@H](Cc1ccc(Br)cc1)C(=O)O; Pro(cis-4-F) = O=C(O)[C@@H]1C[C@H](F)CN1; Hyp = O=C(O)[C@@H]1C[C@@H](O)CN1; tBuAla = CC(C)(C)C[C@H](N)C(=O)O; Pen = CC(C)(S)[C@H](N)C(=O)O; Tle = CC(C)(C)[C@H](N)C(=O)O; PEG3 = NCCOCCOCCOCCC(=O)O; Dap = NC[C@H](N)C(=O)O; PEG2 = NCCOCCOCCC(=O)O; Sar = CNCC(=O)O

T1: recombinant human MASP1 active protease (amino acids 297-699, C-terminal His Tag) (human, UniProt P48740 297-699)
T1 sequence: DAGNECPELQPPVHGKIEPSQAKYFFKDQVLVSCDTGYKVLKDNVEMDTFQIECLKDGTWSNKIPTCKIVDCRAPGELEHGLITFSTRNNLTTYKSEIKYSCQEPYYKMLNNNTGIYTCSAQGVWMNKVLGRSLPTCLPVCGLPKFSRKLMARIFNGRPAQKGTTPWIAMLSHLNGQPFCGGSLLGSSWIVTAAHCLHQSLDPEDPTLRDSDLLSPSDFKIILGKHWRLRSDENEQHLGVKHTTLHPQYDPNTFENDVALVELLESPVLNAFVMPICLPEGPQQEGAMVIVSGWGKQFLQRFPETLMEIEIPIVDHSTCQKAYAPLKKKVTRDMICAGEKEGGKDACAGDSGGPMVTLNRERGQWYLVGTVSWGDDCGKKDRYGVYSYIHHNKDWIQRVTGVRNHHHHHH


What was measured:
[1] = target: recombinant human MASP2 active protease (amino acids 297-686, C-terminal His Tag) (human, UniProt O00187 297-686); test: cell-based or functional assay
recombinant human MASP2 active protease (amino acids 297-686, C-terminal His Tag), sequence (O00187 other isoform, or with tags, fused parts or gaps limits assumed): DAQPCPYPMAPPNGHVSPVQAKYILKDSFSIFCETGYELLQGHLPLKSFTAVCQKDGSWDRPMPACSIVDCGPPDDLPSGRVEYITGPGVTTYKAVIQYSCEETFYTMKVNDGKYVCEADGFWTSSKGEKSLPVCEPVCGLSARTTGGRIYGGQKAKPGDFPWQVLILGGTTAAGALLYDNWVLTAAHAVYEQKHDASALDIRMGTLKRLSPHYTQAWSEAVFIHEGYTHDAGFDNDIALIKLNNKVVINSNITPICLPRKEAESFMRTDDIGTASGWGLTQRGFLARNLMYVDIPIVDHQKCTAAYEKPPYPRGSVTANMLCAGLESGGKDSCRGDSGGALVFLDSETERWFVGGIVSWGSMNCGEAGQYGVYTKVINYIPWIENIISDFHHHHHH

[2] = target: T1, recombinant human MASP1 active protease …; test: cell-based or functional assay

| human MASP2 IC50 [1] [nM] | human MASP1 IC50 [2] [nM] | Binder |
| --- | --- | --- |
| 190 | 87 | GICSRS[Phe(4-Br)]PPICIPD-OH (disulfide 3-11; N-terminus assumed; SMILES CC[C@H](C)[C@H](NC(=O)CN)C(=O)N[C@H]1CSSC[C@@H](C(=O)N[C@H](C(=O)N2CCC[C@H]2C(=O)N[C@@H](CC(=O)O)C(=O)O)[C@@H](C)CC)NC(=O)[C@H]([C@@H](C)CC)NC(=O)[C@@H]2CCCN2C(=O)[C@@H]2CCCN2C(=O)[C@H](Cc2ccc(Br)cc2)NC(=O)[C@H](CO)NC(=O)[C@H](CCCNC(=N)N)NC(=O)[C@H](CO)NC1=O) [Example 416: GIC+SRS-((4-Bromo)F)-PPIC+IPD-OH] |
| 4000 | 86 | GICSRSLP[Pro(cis-4-F)]ICIPD-OH (disulfide 3-11; N-terminus assumed; SMILES CC[C@H](C)[C@H](NC(=O)CN)C(=O)N[C@H]1CSSC[C@@H](C(=O)N[C@H](C(=O)N2CCC[C@H]2C(=O)N[C@@H](CC(=O)O)C(=O)O)[C@@H](C)CC)NC(=O)[C@H]([C@@H](C)CC)NC(=O)[C@@H]2C[C@H](F)CN2C(=O)[C@@H]2CCCN2C(=O)[C@H](CC(C)C)NC(=O)[C@H](CO)NC(=O)[C@H](CCCNC(=N)N)NC(=O)[C@H](CO)NC1=O) [Example 414: GIC+SRSLP-((cis-Fluoro)P)-IC+IPD-OH] |
| 2500 | 76 | AICSRS[Tle]PPICIPD-NH2 (disulfide 3-11; N-terminus assumed; SMILES CC[C@H](C)[C@H](NC(=O)[C@H](C)N)C(=O)N[C@H]1CSSC[C@@H](C(=O)N[C@H](C(=O)N2CCC[C@H]2C(=O)N[C@@H](CC(=O)O)C(N)=O)[C@@H](C)CC)NC(=O)[C@H]([C@@H](C)CC)NC(=O)[C@@H]2CCCN2C(=O)[C@@H]2CCCN2C(=O)[C@H](C(C)(C)C)NC(=O)[C@H](CO)NC(=O)[C@H](CCCNC(=N)N)NC(=O)[C@H](CO)NC1=O) [Example 411: AIC+SRS-((tBu)G)-PPI-C+IPD-NH2] |
| 100 | 5.1 | [Sar]ICSRSLP[Oic]I[Pen]I[5‑Azaspiro(2.4)heptane‑1‑carboxylic acid]-OH (disulfide 3-11) [Example 419: ((N-Me)G)-IC+SRSLP-(Oic)-I-(Pen)+I-((5-Azaspiro[2.4]heptane-1-carboxylic acid)-OH] |
| 5000 | 77 | [Sar]ICKRS[tBuAla]PPI[Pen]IP-NH2 (disulfide 3-11; N-terminus assumed; SMILES CC[C@H](C)[C@H](NC(=O)CNC)C(=O)N[C@H]1CSSC(C)(C)[C@@H](C(=O)N[C@H](C(=O)N2CCC[C@H]2C(N)=O)[C@@H](C)CC)NC(=O)[C@H]([C@@H](C)CC)NC(=O)[C@@H]2CCCN2C(=O)[C@@H]2CCCN2C(=O)[C@H](CC(C)(C)C)NC(=O)[C@H](CO)NC(=O)[C@H](CCCNC(=N)N)NC(=O)[C@H](CCCCN)NC1=O) [Example 412: ((N-Me)G)-IC+KRS-((tBu)A)-PPI-(Pen)+IP-NH2] |
| 570 | 71 | [PEG2]GICSRSLPPICIPD-OH (disulfide 4-12; N-terminus assumed; SMILES CC[C@H](C)[C@H](NC(=O)CNC(=O)CCOCCOCCN)C(=O)N[C@H]1CSSC[C@@H](C(=O)N[C@H](C(=O)N2CCC[C@H]2C(=O)N[C@@H](CC(=O)O)C(=O)O)[C@@H](C)CC)NC(=O)[C@H]([C@@H](C)CC)NC(=O)[C@@H]2CCCN2C(=O)[C@@H]2CCCN2C(=O)[C@H](CC(C)C)NC(=O)[C@H](CO)NC(=O)[C@H](CCCNC(=N)N)NC(=O)[C@H](CO)NC1=O) [Example 409: (PEG1(10 atoms))-GIC+SRSLPPIC+IPD-OH] |
| 2000 | 78 | [Sar]ICSR[Dap]LPPICIPD-OH (disulfide 3-11; N-terminus assumed; SMILES CC[C@H](C)[C@H](NC(=O)CNC)C(=O)N[C@H]1CSSC[C@@H](C(=O)N[C@H](C(=O)N2CCC[C@H]2C(=O)N[C@@H](CC(=O)O)C(=O)O)[C@@H](C)CC)NC(=O)[C@H]([C@@H](C)CC)NC(=O)[C@@H]2CCCN2C(=O)[C@@H]2CCCN2C(=O)[C@H](CC(C)C)NC(=O)[C@H](CN)NC(=O)[C@H](CCCNC(=N)N)NC(=O)[C@H](CO)NC1=O) [Example 413: ((N-Me)G)-IC+SR-(Dap)-LPPIC+IPD-OH] |
| 130 | 1.8 | AICSRSLP[Oic]I[Pen]IPN-OH (disulfide 3-11; N-terminus assumed; SMILES CC[C@H](C)[C@H](NC(=O)[C@H](C)N)C(=O)N[C@H]1CSSC(C)(C)[C@@H](C(=O)N[C@H](C(=O)N2CCC[C@H]2C(=O)N[C@@H](CC(N)=O)C(=O)O)[C@@H](C)CC)NC(=O)[C@H]([C@@H](C)CC)NC(=O)[C@@H]2C[C@@H]3CCCC[C@@H]3N2C(=O)[C@@H]2CCCN2C(=O)[C@H](CC(C)C)NC(=O)[C@H](CO)NC(=O)[C@H](CCCNC(=N)N)NC(=O)[C@H](CO)NC1=O) [Example 418: AIC+SRSLP-(Oic)-I-(Pen)+IPN-OH] |
| 2700 | 76 | GICSRSLP[Hyp]ICIPD-OH (disulfide 3-11; N-terminus assumed; SMILES CC[C@H](C)[C@H](NC(=O)CN)C(=O)N[C@H]1CSSC[C@@H](C(=O)N[C@H](C(=O)N2CCC[C@H]2C(=O)N[C@@H](CC(=O)O)C(=O)O)[C@@H](C)CC)NC(=O)[C@H]([C@@H](C)CC)NC(=O)[C@@H]2C[C@@H](O)CN2C(=O)[C@@H]2CCCN2C(=O)[C@H](CC(C)C)NC(=O)[C@H](CO)NC(=O)[C@H](CCCNC(=N)N)NC(=O)[C@H](CO)NC1=O) [Example 410: GIC+SRSLP-(Hyp)-IC+IPD-OH] |
| 12 | 8.1 | {Tranexamic″}-ICSRS[tBuAla]PPI[Pen]IP-{NH(CH2CH2O)4CH2CO-NH2} (disulfide 2-10; SMILES CC[C@H](C)[C@@H]1NC(=O)[C@@H]2CCCN2C(=O)[C@@H]2CCCN2C(=O)[C@H](CC(C)(C)C)NC(=O)[C@H](CO)NC(=O)[C@H](CCCNC(=N)N)NC(=O)[C@H](CO)NC(=O)[C@@H](NC(=O)[C@@H](NC(=O)[C@H]2CC[C@@H](CN)CC2)[C@@H](C)CC)CSSC(C)(C)[C@@H](C(=O)N[C@H](C(=O)N2CCC[C@H]2C(=O)NCCOCCOCCOCCOCC(N)=O)[C@@H](C)CC)NC1=O) [Example 422: (Tranexamic)-IC+SRS-((tBu)A)-PPI-(Pen)+IP-(PEG4-CH2CO2H (15 atoms))-NH2] |
| 17000 | 89 | AICSRSLPPIC[(2S,3S)‑2‑((Amino)methyl)‑3‑methylpentanoic acid]PD-NH2 (disulfide 3-11) [Example 417: AIC+SRSLPPIC+((2S,3S)-2-((Amino)methyl)-3-methylpentanoic acid)-PD-NH2] |
| 9.8 | 5 | {Tranexamic″}-ICSRS[tBuAla]PPI[Pen]IP-{PEG3-NH2} (disulfide 2-10; SMILES CC[C@H](C)[C@@H]1NC(=O)[C@@H]2CCCN2C(=O)[C@@H]2CCCN2C(=O)[C@H](CC(C)(C)C)NC(=O)[C@H](CO)NC(=O)[C@H](CCCNC(=N)N)NC(=O)[C@H](CO)NC(=O)[C@@H](NC(=O)[C@@H](NC(=O)[C@H]2CC[C@@H](CN)CC2)[C@@H](C)CC)CSSC(C)(C)[C@@H](C(=O)N[C@H](C(=O)N2CCC[C@H]2C(=O)NCCOCCOCCOCCC(N)=O)[C@@H](C)CC)NC1=O) [Example 421: (Tranexamic)-IC+SRS-((tBu)A)-PPI-(Pen)+IP-(PEG2(13 atoms))-NH2] |
